From patent US20250262167A1, “COMPOUNDS, TARGETS AND PATHWAYS FOR MACROPHAGE MODULATION” (Massachusetts Institute of Technology, priority 2020, published 2025)

How the values were obtained:
[1] = system: human monocyte-derived macrophages (hMDMs); assay: High throughput phenotypic screen of macrophage activation (cell shape, Z-score); format: cell-based; conditions: known M1-/M2-activating stimuli;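 further: phalloidin and DAPI stained hMDMs imaged by high-content microscopy, cell eccentricity compared with DMSO control by T-test, round morphology scored negative, elongated positive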
Method: The Z-score was calculated by T-test to measure the difference of cell morphology between treatment and control. Stimuli had negative Z-scores when induced cells to round morphology and positive scores when induced cells to elongated morphology. […] Equally mixed human monocytes isolated from fresh blood of 4 healthy donors were cultured in vitro with 50 ng/mL M-CSF for 7 days. hMDMs were trypsinized and plated on 384-well plates (5000 cells/well in 50 μL). Cells were recovered in 10 ng/mL M-CSF for 16 hrs and then treated with compounds for 24 hrs. Cells were washed, fixed and stained with Phalloidin and DAPI. The plates were scanned with a high-content microscope with six-fields per well to quantify the cell number and cell morphology. […] The cell eccentricity was calculated to measure the cell morphology. The Z-score was calculated by T-test to measure the difference in cell morphologies between each compound and DMSO control.
Cells were treated with a library of over 4000 individual compounds or drugs at the final concentration of 20 μM using the CyBi-Well simultaneous pipettor (CyBio). […] After 24 hr incubation, supernatants were removed using the microplate washer (Bioteck) and cells were fixed by adding 50 μL 16% paraformaldehyde (Thermo Scientific) with the dispenser for 20 minutes. Cells were then washed with 50 μL 1×PBS twice and incubated for 20 minutes with NucBlue and AF746 Phalloidin (Invitrogen) to stain nucleus and cytoskeleton. Cells were then washed with 50 μL 1×PBS twice and maintained in PBS for the image acquirement. Plates were read in the Opera Phenix high content screening system (PerkinElmer) to photograph cells using 20× objective in 2 fluorescent channels (Blue and FarRed). A total of 6 different fields in each well and an average of 1,000 cells were imaged per well. CellProfiler was used to identify each cell by overlapping signals from its nucleus and cytoskeleton, and calculate the eccentricity as the parameter to measure the cell morphology. The Z-score was calculated by T-test to measure the difference of cell morphology between each treatment and control. For each row of the 384-well plate, total 4 wells with first and last two columns treated with the same concentration of DMSO were combined as the control for the other 20 treatment wells in that row. In the meantime, classic M1 and M2 stimuli were added to generate the gold-standard Z-score cutoffs with M1 or M2 activation. Classic M1 stimuli include LPS (100 ng/mL), IFNγ (50 ng/mL, Peprotech), TNFα (50 ng/mL, Peprotech), or IFNγ plus TNFα. Classic M2 stimuli include IL-10 (10 ng/mL, Peprotech), IL-4 (10 ng/mL, Peprotech), or IL-13 (5 ng/mL, Peprotech).

[2] = system: hMDMs; assay: Flow cytometry of M1 markers (CD80, CD86) and M2 markers (CD206, CD163) in hMDMs; format: cell-based, human; conditions: 24 hrs
Method: FIGS. 7A-7B show morphology and phenotypes of activated macrophages. […] The resulting macrophages were polarized to M1 by IFNγ or M2 by IL4. Then, M1 macrophages were treated with M2-type compound bosutinib ([…]) for 24 hrs, and M2 macrophages were treated with M1-type compound thiostrepton ([…]) for 24 hrs. F-actin was stained and images were acquired by fluorescent microscopy with 60× objective. Cell nuclei are stained with DAPI. Representative data were shown from two independent experiments. […] Shown are the representative staining profiles from three independent experiments. The numbers show mean fluorescent intensity (MFI)+/−standard error of the mean (SEM) for n=3 samples per group.
FIGS. 9A-9C show comparison of the differentially expressed genes induced by selected compounds (FIG. 9A), ligands for novel pathways (FIG. 9B), and controls (IL-4 and IFNγ). […] Shown are the changes of the relative mean fluorescence intensity (MFI) to controls. 0.2 refers to 20% MFI increase.
B6 mice were purchased from the Jackson Laboratory and maintained in the animal facility at the Massachusetts Institute of Technology (MIT). NSG mice were purchased from the Jackson Laboratory and maintained under specific pathogen-free conditions in the animal facilities at MIT. […] The data were analyzed by FlowJo. […]

[3] = system: hMDMs; assay: RNA-seq transcriptional response of hMDMs (GSEA, GO enrichment); format: cell-based, human; conditions: hMDMs, 24 hrs, GSEA
Method: Duplicate hMDM samples were treated with 2 M2-activating and 6 M1-activating compounds as well as IL-4 and IFNγ for 24 hrs. Gene expression levels were measured by RNA-seq separately. GSEA preranked analysis was performed based on the whole genome gene list ranked on gene expression changes using a gene set of 49 transcriptional modules in response to 29 stimuli in hMDMs. bosut.: bosutinib; alster.: alsterpaullone; mocet.: mocetinostat; thios.: thiostrepton; niclo.: niclosamide; chlor.: chlorhexidine; fenb.: fenbendazole; fluvo.: fluvoxamine. […] Duplicate hMDM samples were stimulated with each ligand and analyzed by RNA-seq separately.
DEGs were identified by edgeR at P<0.05 with at least 2 fold-change.
RNAs were extracted with RNeasy MiniElute kit (Qiagen), converted into cDNA and sequenced using Next-Generation Sequencing (Illumina). […] Differential expression analysis was performed using the program edgeR at P<0.05 with a 2 fold-change. The gene expression level across different samples was normalized and quantified using the function of cpm. Differentially expressed genes were annotated using online functional enrichment analysis tool DAVID (http://david.ncifcrf.gov/). Gene set enrichment analysis were performed with GSEA with FDR q-value<0.05.
Fresh hMDMs were treated with compounds at the EC for 24 hours, followed by RNA-seq.

B1: IL-4: classic M2 stimulus (protein, UniProt P05112 25-153, looked up)
Interleukin-4: HKCDITLQEIIKTLNSLTEQKTLCTELTVTDIFAASKNTTEKETFCRAATVLRQFYSHHEKDTRCLGATAQQFHRHKQLIRFLKRLDRNLWGLAGLNSCPVKEANQSTLENFLERLKTIMREKYSKCSS
In the case of B1, the cell shape induced [1] is reported as “elongated cell shape”, the “expression of M1 markers CD80 and CD86” value [2] is reported as “suppressed” and the “expression of M2 markers CD206 and CD163” value [2] is reported as “up-regulated”.

B2: EGF: ligand of novel pathway (protein, UniProt P01133 23-1207, looked up)
Pro-epidermal growth factor: PQHWSCPEGTLAGNGNSTCVGPAPFLIFSHGNSIFRIDTEGTNYEQLVVDAGVSVIMDFHYNEKRIYWVDLERQLLQRVFLNGSRQERVCNIEKNVSGMAINWINEEVIWSNQQEGIITVTDMKGNNSHILLSALKYPANVAVDPVERFIFWSSEVAGSLYRADLDGVGVKALLETSEKITAVSLDVLDKRLFWIQYNREGSNSLICSCDYDGGSVHISKHPTQHNLFAMSLFGDRIFYSTWKMKTIWIANKHTGKDMVRINLHSSFVPLGELKVVHPLAQPKAEDDTWEPEQKLCKLRKGNCSSTVCGQDLQSHLCMCAEGYALSRDRKYCEDVNECAFWNHGCTLGCKNTPGSYYCTCPVGFVLLPDGKRCHQLVSCPRNVSECSHDCVLTSEGPLCFCPEGSVLERDGKTCSGCSSPDNGGCSQLCVPLSPVSWECDCFPGYDLQLDEKSCAASGPQPFLLFANSQDIRHMHFDGTDYGTLLSQQMGMVYALDHDPVENKIYFAHTALKWIERANMDGSQRERLIEEGVDVPEGLAVDWIGRRFYWTDRGKSLIGRSDLNGKRSKIITKENISQPRGIAVHPMAKRLFWTDTGINPRIESSSLQGLGRLVIASSDLIWPSGITIDFLTDKLYWCDAKQSVIEMANLDGSKRRRLTQNDVGHPFAVAVFEDYVWFSDWAMPSVMRVNKRTGKDRVRLQGSMLKPSSLVVVHPLAKPGADPCLYQNGGCEHICKKRLGTAWCSCREGFMKASDGKTCLALDGHQLLAGGEVDLKNQVTPLDILSKTRVSEDNITESQHMLVAEIMVSDQDDCAPVGCSMYARCISEGEDATCQCLKGFAGDGKLCSDIDECEMGVPVCPPASSKCINTEGGYVCRCSEGYQGDGIHCLDIDECQLGEHSCGENASCTNTEGGYTCMCAGRLSEPGLICPDSTPPPHLREDDHHYSVRNSDSECPLSHDGYCLHDGVCMYIEALDKYACNCVVGYIGERCQYRDLKWWELRHAGHGQQQKVIVVAVCVVVLVMLLLLSLWGAHYYRTQKLLSKNPKNPYEESSRDVRSRRPADTEDGMSSCPQPWFVVIKEHQDLKNGGQPVAGEDGQAADGSMQPTSWRQEPQLCGMGTEQGCWIPVSSDKGSCPQVMERSFHMPSYGTQTLEGGVEKPHSLLSANPLWQQRALDPPHQMELTQ
modifications: Pro-epidermal growth factor
notes: ligand of novel pathway
With B2 the “gene expression of TPP modules (#30, #32)” value [3] was “down-regulated” and the “gene expression of typical M1 modules (#7, #8)” value [3] was “up-regulated”.

B3: IL10: classic M2 stimulus (protein, UniProt P22301 19-178, looked up)
Interleukin-10: SPGQGTQSENSCTHFPGNLPNMLRDLRDAFSRVKTFFQMKDQLDNLLLKESLLEDFKGYLGCQALSEMIQFYLEEVMPQAENQDPDIKAHVNSLGENLKTLRLRLRRCHRFLPCENKSKAVEQVKNAFNKLQEKGIYKAMSEFDIFINYIEAYMTMKIRN
With B3 the cell shape induced [1] was “elongated cell shape”.
